Test results as given in US12497460B2, “Anti-MSR1 antibodies and methods of use thereof” (REGENERON PHARMACEUTICALS, INC., priority 2018, dated 2025).

T1: His9-hMSR1 (human MSR1 extracellular domain) (Homo sapiens, UniProt P21757)
T1 construct: human MSR1 extracellular domain expressed with a N-terminal nonahistidine tag; His9 (nonahistidine) (N); purchased R&D Systems 2708-MS
T1 sequence (P21757 77-451 limits assumed): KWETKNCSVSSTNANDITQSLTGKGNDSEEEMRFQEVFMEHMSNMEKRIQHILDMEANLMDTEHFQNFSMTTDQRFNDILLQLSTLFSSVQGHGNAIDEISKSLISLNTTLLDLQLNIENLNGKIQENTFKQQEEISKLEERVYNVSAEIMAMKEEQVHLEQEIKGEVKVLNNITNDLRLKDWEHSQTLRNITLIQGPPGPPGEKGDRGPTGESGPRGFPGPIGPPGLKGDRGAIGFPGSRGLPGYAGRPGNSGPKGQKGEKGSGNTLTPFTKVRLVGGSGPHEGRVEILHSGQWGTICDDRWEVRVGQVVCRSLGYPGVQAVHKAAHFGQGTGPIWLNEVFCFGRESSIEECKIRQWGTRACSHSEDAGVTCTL

T2: PMA-treated THP-1 cells (endogenously expressed human MSR1) (Homo sapiens, UniProt P21757)
T2 construct: endogenous in cells; host or cells: THP-1 cells differentiated with PMA
T2 sequence (P21757 1-451): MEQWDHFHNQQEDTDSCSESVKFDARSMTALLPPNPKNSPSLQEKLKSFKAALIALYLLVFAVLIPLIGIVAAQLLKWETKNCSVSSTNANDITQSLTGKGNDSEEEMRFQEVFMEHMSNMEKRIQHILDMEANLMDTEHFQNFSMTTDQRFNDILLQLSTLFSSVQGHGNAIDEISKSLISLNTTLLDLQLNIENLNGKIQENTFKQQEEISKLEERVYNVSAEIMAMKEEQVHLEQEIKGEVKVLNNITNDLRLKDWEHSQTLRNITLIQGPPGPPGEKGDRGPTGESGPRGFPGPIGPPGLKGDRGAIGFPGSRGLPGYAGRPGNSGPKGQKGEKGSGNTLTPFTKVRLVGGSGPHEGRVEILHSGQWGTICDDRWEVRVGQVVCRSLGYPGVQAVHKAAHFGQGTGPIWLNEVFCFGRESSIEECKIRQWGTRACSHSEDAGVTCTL

B1: H1H27731P-N297Q: one of "Twelve anti-MSR1 antibodies"; "made with an N297Q single point mutation in human Fcγ portion" (antibody, V domains shown)
VH: QLQLQESGPGLVKPSETLSLTCTVSGGSISRISYYWGWIRQPPGKGLEWIGSIYDSGSTYYNPSLKSRVTISIDTSKNQFSLKLSSVTAADTAVYYCVRYSSSSAFAFDYWGQGTLVTVSS
VL: DIQMTQSPSSVSASVGDRVTITCRASQGISSWLAWYQQKPGKAPKLLIYAASSLQSGVPSRFSGSGSGTDFTLTISSLQPEDFATYYCQQANSFPFTFGPGTKVDIKR
B2: H1H27734P-N297Q: one of "Twelve anti-MSR1 antibodies"; "made with an N297Q single point mutation in human Fcγ portion" (antibody, V domains shown)
VH: EVQLVESRGGLVQPGGSLRLSCAASGFTFSSYAMSWVRQAPGKGLEWVSAISGSGGSTFYADSVKGRFTISRDNSKNTVYLQMNSLRAEDTAVYYCAKALVLRFLEWLGDYWGQGTLVTVSS
VL: DIQMTQSPSTLSASVGDRVTITCRASQSISSWLAWFQQKPGKAPKLLIYKASSLESGVPSRFSGSGSGTEFTLTISSLQPDDFATYYCQQYKSYWTFGQGTKVEIKR
B3: H1H21227N-N297Q: "modified versions of 21227N (H1H21227N-N297Q and H1H21227N-N297D)"; anti-MSR1 antibody "with a N297Q single point mutation" (antibody, V domains shown)
VH: QVQLVQSGAEVKKPGASVKVSCKVSGYTLTELSIHWVRQVPGKGLEWMGGFDPEEGETIFAQEFRDRVTLTEDTSPDTAYMELSSLKSEDAAVYYCTTPRYCNNGICYDYWGQGTLVTVSS
VL: DIQMTQSPSSLSASVGDRVTITCRASQSISNYLNWYQQKPGKAPKLLIYTASSLQSGVPSRFSGSGSGTDFTLTISSLQTEDFATYYCQQSYSNFPITFGQGTRLEIKR
B4: H1H21227N: "anti-MSR1 antibodies ... (21227N, 21231N, 21234N) were produced with the original human Fcγ portion"; "H1H" = human IgG1 Fc (antibody, V domains shown)
VH: B3 VH
VL: B3 VL
modifications: human IgG1 Fc
notes: "anti-MSR1 antibodies ; (21227N, 21231N, 21234N) were produced with the original human Fcγ portion"; "H1H" = human IgG1 Fc
B5: H1H21227N-N297D: "The 21227N antibody was also produced as a third version with a N297D mutation" (antibody, V domains shown)
VH: B3 VH
VL: B3 VL

Each molecule was assayed against HMM-mfMSR1 (monkey MSR1 extracellular domain) (assay: Biacore surface plasmon resonance binding kinetics of anti-MSR1 mAbs, antibody-capture format). Details: 25° C.; analyte HMM-mfMSR1; * = no dissociation observed, kd manually fixed at 1.00E−05; NB = no binding observed.
Description: (§1) Binding affinities and kinetic constants of human anti-MSR1 antibodies for different MSR1 reagents were determined by real-time surface plasmon resonance (Biacore 4000). All binding studies were performed in 10 mM HEPES, 150 mM NaCl, 3 mM EDTA, and 0.05% v/v Surfactant Tween-20, pH 7.4 (HBS-ET) running buffer at 25° C. and 37° C.
(§2) The association rate (ka) and dissociation rate (kd) were determined by fitting the real-time binding sensorgrams to a 1:1 binding model with mass transport limitation using Scrubber 2.0c curve-fitting software. Binding dissociation equilibrium constant (KD) and dissociative half-life (t½) were calculated from the kinetic rates as: […]

Sequence of HMM-mfMSR1 (monkey MSR1 extracellular domain) (as listed by the source): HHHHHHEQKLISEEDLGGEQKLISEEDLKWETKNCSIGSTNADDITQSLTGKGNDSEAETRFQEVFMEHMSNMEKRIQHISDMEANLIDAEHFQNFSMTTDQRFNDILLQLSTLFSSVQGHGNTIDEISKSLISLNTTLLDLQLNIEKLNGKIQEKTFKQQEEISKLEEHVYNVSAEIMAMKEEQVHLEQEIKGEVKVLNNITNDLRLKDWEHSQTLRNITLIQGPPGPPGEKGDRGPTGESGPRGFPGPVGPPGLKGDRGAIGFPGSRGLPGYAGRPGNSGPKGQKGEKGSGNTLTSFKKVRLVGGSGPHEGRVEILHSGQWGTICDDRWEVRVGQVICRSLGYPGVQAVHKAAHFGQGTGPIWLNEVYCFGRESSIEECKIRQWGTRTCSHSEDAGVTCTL

Row | kd | Molecule
1 | 4.69e-05 s⁻¹ | B1
2 | 0.00291 s⁻¹ | B2
3 | 7.51e-05 s⁻¹ | B3
4 | 4.41e-05 s⁻¹ | B4
5 | 4.03e-05 s⁻¹ | B5

Same assay, conditions: 25° C.; analyte HMM-mfMSR1; antibody-capture format; NB = no binding observed

Row | ka | Molecule
6 | 98200 M⁻¹ s⁻¹ | B1
7 | 423000 M⁻¹ s⁻¹ | B2
8 | 1.36e+06 M⁻¹ s⁻¹ | B3
9 | 1.27e+06 M⁻¹ s⁻¹ | B4
10 | 1.35e+06 M⁻¹ s⁻¹ | B5

Same assay, conditions: 25° C.; analyte HMM-mfMSR1; calculated from kinetic rates; NB = no binding observed

Row | Kd | Molecule
11 | 55.3 pM | B3
12 | 34.8 pM | B4
13 | 29.9 pM | B5

Same assay, conditions: 25° C.; analyte HMM-mfMSR1; dissociative half-life; NB = no binding observed

Row | t½ | Molecule
14 | 2.57 h | B3
15 | 4.37 h | B4
16 | 4.78 h | B5

Same assay, conditions: 37° C.; analyte HMM-mfMSR1; * = no dissociation observed, kd manually fixed at 1.00E−05; NB = no binding observed

Row | kd | Molecule
17 | 0.000187 s⁻¹ | B1
18 | 0.0032 s⁻¹ | B2
19 | 1.08e-05 s⁻¹ | B3
20 | 1.00E−05* s^−1 | B4
21 | 2.42e-05 s⁻¹ | B5

Same assay, conditions: 37° C.; analyte HMM-mfMSR1; antibody-capture format; NB = no binding observed

Row | ka | Molecule
22 | 278000 M⁻¹ s⁻¹ | B1
23 | 949000 M⁻¹ s⁻¹ | B2
24 | 2.74e+06 M⁻¹ s⁻¹ | B3
25 | 2.76e+06 M⁻¹ s⁻¹ | B4
26 | 2.68e+06 M⁻¹ s⁻¹ | B5

Same assay, conditions: 37° C.; analyte HMM-mfMSR1; calculated from kinetic rates; NB = no binding observed

Row | Kd | Molecule
27 | 3.95 pM | B3
28 | 3.62 pM | B4
29 | 9.03 pM | B5

Same assay, conditions: 37° C.; analyte HMM-mfMSR1; dissociative half-life; NB = no binding observed

Row | t½ | Molecule
30 | 17.82 h | B3
31 | 19.25 h | B4
32 | 7.95 h | B5

The molecules below were run against T1, His9-hMSR1 (human MSR1 extracellular domain) in the same assay as above. Details: 25° C.; analyte His9-hMSR1; * = no dissociation observed, kd manually fixed at 1.00E−05; NB = no binding observed.
Description: as §1, §2

Row | kd | Molecule
33 | 2.24e-05 s⁻¹ | B1
34 | 0.00111 s⁻¹ | B2
35 | 4.89e-05 s⁻¹ | B3
36 | 1.44e-05 s⁻¹ | B4
37 | 3.79e-05 s⁻¹ | B5

Same assay, conditions: 25° C.; analyte His9-hMSR1; antibody-capture format; NB = no binding observed

Row | ka | Molecule
38 | 129000 M⁻¹ s⁻¹ | B1
39 | 420000 M⁻¹ s⁻¹ | B2
40 | 1.23e+06 M⁻¹ s⁻¹ | B3
41 | 1.2e+06 M⁻¹ s⁻¹ | B4
42 | 1.14e+06 M⁻¹ s⁻¹ | B5

Same assay, conditions: 25° C.; analyte His9-hMSR1; calculated from kinetic rates; NB = no binding observed

Row | Kd | Molecule
43 | 39.7 pM | B3
44 | 12 pM | B4
45 | 33.3 pM | B5

Same assay, conditions: 25° C.; analyte His9-hMSR1; dissociative half-life; NB = no binding observed

Row | t½ | Molecule
46 | 3.93 h | B3
47 | 13.3 h | B4
48 | 5.08 h | B5

Same assay, conditions: 37° C.; analyte His9-hMSR1; * = no dissociation observed, kd manually fixed at 1.00E−05; NB = no binding observed

Row | kd | Molecule
49 | 0.000132 s⁻¹ | B1
50 | 0.0019 s⁻¹ | B2
51 | 1.23e-05 s⁻¹ | B3
52 | 1.85e-05 s⁻¹ | B4
53 | 1.00E−05* s^−1 | B5

Same assay, conditions: 37° C.; analyte His9-hMSR1; antibody-capture format; NB = no binding observed

Row | ka | Molecule
54 | 286000 M⁻¹ s⁻¹ | B1
55 | 1.09e+06 M⁻¹ s⁻¹ | B2
56 | 2.67e+06 M⁻¹ s⁻¹ | B3
57 | 2.56e+06 M⁻¹ s⁻¹ | B4
58 | 2.73e+06 M⁻¹ s⁻¹ | B5

Same assay, conditions: 37° C.; analyte His9-hMSR1; calculated from kinetic rates; NB = no binding observed

Row | Kd | Molecule
59 | 4.6 pM | B3
60 | 7.24 pM | B4
61 | 3.66 pM | B5

Same assay, conditions: 37° C.; analyte His9-hMSR1; dissociative half-life; NB = no binding observed

Row | t½ | Molecule
62 | 15.7 h | B3
63 | 10.4 h | B4
64 | 19.25 h | B5

Each molecule was assayed on parental HEK293 cells (assay: Electrochemiluminescence antibody binding assay, non-specific binding control cells). Details: not given.
Type: cell-based, human

Row | Molecule | Ratio of 11 nM Antibody Binding Signal (RLU) to isotype control, HEK293
65 | B1 | 7
66 | B2 | 14
67 | B3 | 1
68 | B4 | 1
69 | B5 | 1

These molecules were tested against T1, His9-hMSR1 (human MSR1 extracellular domain) (assay: Biacore T200 surface plasmon resonance binding kinetics of anti-MSR1 antibody-drug conjugates and parental antibodies). Details: 25° C.; Table 19, antibody-LXR ADCs and unconjugated antibodies.
Description: The MSR1 antibodies disclosed herein were conjugated to various liver X receptor (LXR) payloads or various steroid payloads. This example describes how equilibrium dissociation constant (KD) values for human MSR1 reagents binding to human anti-MSR1 antibody-drug conjugates and their corresponding unconjugated parental antibodies were determined using a real-time surface plasmon resonance-based Biacore T200 biosensor.
All binding studies were performed in 10 mM HEPES, 300 mM NaCl, 3 mM EDTA, and 0.05% v/v Surfactant Tween-20, pH 7.4 (HBS-ET) running buffer at 25° C. The Biacore CM4 sensor chip surface was first derivatized by amine coupling with the goat anti-human Fcγ specific polyclonal antibody (Jackson ImmunoResearch Laboratories, Cat #BR-1008-39) to capture anti-MSR1 monoclonal antibodies. Binding studies were performed on human MSR1 extracellular domain expressed with a N-terminal nonahistidine tag (His9-hMSR1; R&D Systems, Cat #2708-MS).
as §2
Binding kinetics parameters for His9-hMSR1 binding to different anti-MSR1 antibody-LXR ADCs and their unconjugated parental antibodies at 25° C. are shown in Table 19. “LP1” represents a linker-payload for which the payload structure is provided in Example 11.
The binding studies were repeated with anti-MSR1 antibody H1H21234-N297Q and steroid linker payloads (LPs). “LP3” represents a linker-payload for which the structure is provided in Example 23, and “LP13” represents a linker-payload for which the structure is provided in Example 24.

Row | ka | Molecule
70 | 117000 M⁻¹ s⁻¹ | B1
71 | 77200 M⁻¹ s⁻¹ | B2

Same assay, conditions: 25° C.; Table 19; * = no dissociation observed, kd manually fixed at 1.00E−05

Row | kd | Molecule
72 | 1e-05 s⁻¹ | B1
73 | 0.000596 s⁻¹ | B2

These molecules were tested against T2, PMA-treated THP-1 cells (endogenously expressed human MSR1) (assay: Electrochemiluminescence antibody binding assay on MSR1-expressing cells). Details: not given.
Type: cell-based

Row | Ratio of 11 nM Antibody Binding Signal (RLU) to isotype control, PMA-treated THP-1 | Molecule
74 | 38 | B1
75 | 21 | B2
76 | 5 | B3
77 | 7 | B4
78 | 6 | B5
